Assay results taken from patent US20220332836A1, “A METHOD FOR PREVENTING HUMAN VIRUS ASSOCIATED DISORDERS IN PATIENTS” (NOVARTIS AG, priority 2019, published 2022).

What was measured:
non-human primate CD40 = assay: Binding to non-human primate CD40
Protocol: (§1) mAb1 binds to human CD40 with high affinity (Kd of 0.3 nM).

[1] = system: Fcγ receptors (including CD16); assay: Fcγ receptor binding
[2] = system: antibody-dependent cellular cytotoxicity or complement-dependent cytotoxicity; assay: ADCC / CDC mediation; type: cell-based
Protocol: Currently, CFZ533/Iscalimab is in clinical development for inhibition of transplant organ rejection and therapy for autoimmune diseases.
as §1

PBMC = assay: Induction of PBMC proliferation; type: cell-based
Protocol: as §1

[3] = system: monocyte-derived dendritic cells (DCs); assay: Cytokine production by monocyte-derived dendritic cells; type: cell-based
Protocol: as §1

CD40 [4] = target: T1, CD40 (Homo sapiens, UniProt P25942); assay: CD40 receptor occupancy and CD154-induced CD69 expression in human whole blood cultures; type: cell-based; settings: CD20 positive B cells
T1 construct: CD40 occupancy on peripheral B cells measuring free CD40 and total CD40; endogenous in cells; host or cells: peripheral / whole blood B cells of healthy subjects and rheumatoid arthritis patients (in vivo)
T1 sequence (P25942 21-277): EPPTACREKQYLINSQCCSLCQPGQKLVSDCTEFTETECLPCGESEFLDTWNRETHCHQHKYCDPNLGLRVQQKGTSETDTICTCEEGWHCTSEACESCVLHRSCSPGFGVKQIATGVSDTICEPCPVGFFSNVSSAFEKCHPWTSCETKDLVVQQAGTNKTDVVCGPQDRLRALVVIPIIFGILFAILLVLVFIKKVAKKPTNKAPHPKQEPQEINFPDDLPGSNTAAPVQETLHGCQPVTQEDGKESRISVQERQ
Source text: In addition, mAb1 can disrupt established germinal centers (GCs) in vivo. The CD40 receptor occupancy and functional activity were simultaneously assessed in vitro using human whole blood cultures. Functional activity was quantified via CD154-induced expression of CD69 (the activation marker) on CD20 positive cells (B cells) and CD40 occupancy was monitored using fluorescently labeled mAb1.

[5] = 13-week GLP rhesus monkey toxicity study; type: in vivo
Protocol: (§2) Inflammatory lesions in the kidneys and lungs of 2 animals at 50 mg/kg were noted, and in one of the two animals, lesions in the eyes and trachea were also noted. […] In view of these inflammatory findings, the No Observed Adverse Effect Level (NOAEL) for the 13-week toxicity study was set at 10 mg/kg. […] The NOAEL derived from the 26-week cynomolgus monkey study is considered the most relevant for supporting the clinical dosing regimen.
Adequate safety margin from preclinical toxicological studies: GLP toxicology studies to date have tested CFZ533 at (i) weekly s.c. dosing for 13 weeks at 10, 50, and 150 mg/kg (s.c. and i.v.) in rhesus monkeys, and (ii) weekly s.c. dosing for 26 weeks at 1, 50, and 150 mg/kg in cynomolgus monkeys.

CD40 [6] = target: T1, CD40; assay: Phase 1 single-ascending dose study in healthy subjects and rheumatoid arthritis patients; type: in vivo; settings: for safety and tolerability: interim
Protocol: The safety, tolerability, PK and PD activity of mAb1 are being assessed in an ongoing, randomized, double-blind, placebo-controlled, single-ascending dose study of mAb1 in healthy subjects and patients with rheumatoid arthritis (RA). A total of 48 subjects have been enrolled: 36 healthy subjects who received single doses of mAb1 up to 3 mg/kg IV or S.C., and 12 patients with RA, 6 of whom received single doses of mAb1 at 10 mg/kg IV. […] An investigation of the 30 mg/kg IV dose is ongoing in RA patients. As this study is still ongoing, all clinical data are preliminary in nature and based on interim analyses conducted up to a dose of 10 mg/kg in RA patients.
In healthy subjects as well as in patients with rheumatoid arthritis, after single IV or SC administration, CFZ533 PK profiles were consistent with target mediated disposition resulting in non-linear PK profiles and more rapid clearance when CD40 receptor occupancy dropped below approximately 90%. […]

[7] = system: NK cell-depleted PBMC cultures; assay: EBV regression assay, complete or NK cell-depleted PBMC; type: cell-based, human; settings: 14 days
Source text: (§3) FIG. 16 provides CD3^+ T cell counts from the NK cell-depleted PBMC regression assay after 14 days of culture measured by flow cytometry. Antibodies (in μg/mL) and CsA (in μM) were given in combination with EBV supernatants (except the negative control=medium w/o EBV). Dotted horizontal line was set to the condition ‘medium+EBV’. Data are shown as mean+SEM (n=4).
as §3, with “17” for “16”, “CD19^+ B cell counts from the PBMC regression assay after 14 days of culture measured by flow cytometry. Antibodies (in μg/mL) and CsA (in μM) were given in combination with EBV supernatants (except the negative control=medium w/o EBV). Dotted horizontal line was set to the condition ‘medium+EBV’. Data are shown as mean+SEM (n=4); and CD19^+ B” for “CD3^+ T”
All conditions except ‘medium w/o EBV’ were incubated with EBV supernatant and respective compound or antibodies. […] Looking at the CD19+ B cell proliferation (FIG. 3), there was an obvious increase in CD19+ B cell counts when PBMC were incubated with EBV supernatant compared to PBMC cultured with medium only (medium w/o EBV). […]

[8] = system: EBV-seronegative EBV-B cell/T cell co-cultures; assay: EBV-B cell/T cell co-culture, EBV-seronegative donors; type: cell-based, human
[9] = in vivo
Protocol: as §2

[10] = single dose of 3 mg/kg (IV and SC)
[11] = 10 μg/mL (priming only; priming and recall) and 50 μg/mL (recall only)

Question: Which results are given for “CFZ533: fully human monoclonal Fc-silent, non-depleting anti-CD40 antibody (IgG1/K); heavy chain SEQ ID NO: 9, light chain SEQ ID NO: 10”?
Answer: affinity for human and non-human primate CD40 (non-human primate CD40): very similar affinities; binding to Fcγ receptors (including CD16) [1]: does not bind; mediation of ADCC or CDC ([2]; listed as CFZ533/Iscalimab): incapable of mediating; mediation of ADCC or CDC ([2]; listed as mAb1): does not; induction of PBMC proliferation (PBMC): does not induce; induction of cytokine production by monocyte-derived dendritic cells [3]: does not induce; CD40 occupancy required for full inhibition of rCD154-induced CD69 expression (CD40 [4]): Almost complete; No Observed Adverse Effect Level (NOAEL) ([5]; 13-week toxicity study): 10 mg/kg; major toxicology findings ([5]; weekly dosing 13 weeks at 10, 50, 150 mg/kg): did not reveal any major finding; disposition in Chinese subjects versus non-Chinese subjects (CD40 [6]; 3 mg/kg IV): generally similar; duration of target engagement (CD40 [6]; 3 mg/kg IV): about 4 weeks; duration of target engagement (CD40 [6]; 3 mg/kg SC): about 4 weeks; time of peak plasma concentration post-dose (CD40 [6]; 3 mg/kg SC, healthy subjects): 3 days; duration of full CD40 occupancy (CD40 [6]; 10 mg/kg IV, rheumatoid arthritis patients): 8 weeks; duration of target engagement (CD40 [6]; 30 mg/kg IV, rheumatoid arthritis patients): 16 weeks; decrease in total CD40 on peripheral B cells (CD40 [6]; healthy subjects): about 50%; rCD154-induced CD69 expression on B cells (CD40 [6]; human whole blood, during full CD40 occupancy): generally suppressed; extent of exposure (AUClast) versus dose (CD40 [6]; human, in vivo): increased more than the increase in dose; plasma concentration associated with full (>90%) CD40 occupancy on whole blood B cells (CD40 [6]; human, in vivo): 0.3 to 0.4 µg/mL; decrease in total CD40 on peripheral B cells (CD40 [6]; patients with rheumatoid arthritis): not confirmed; safety and tolerability (CD40 [6]; single 10 mg/kg, RA patients): safe and well tolerated; CD40 receptor occupancy below which clearance is more rapid (CD40 [6]; single IV or SC administration): approximately 90%; safety in Phase 1 study CCFZ533×2101 (CD40 [6]; single ascending doses 0.03 to 30 mg/kg i.v. and 3 mg/kg s.c.): did not reveal major safety concern; anti-KLH responses to the first KLH immunization (CD40 [6]; [10]): transiently suppressed; duration of full (>90%) receptor occupancy with anti-KLH suppression (CD40 [6]; [10]): 3-4 weeks; safety and tolerability (CD40 [6]; single doses up to 3 mg/kg, healthy volunteers): safe and well tolerated; CD19+ B cell counts [7]: decrease in CD19+ B cell counts compared to isotype control independently of NK cells; CD4+ T cell proliferation [8, 11]: slight not significant increase; CD8+ T cell proliferation [8, 11]: slight not significant increase; CD4+ T cell proliferation ([8]; 10-200 μg/mL, all three conditions): no effects; CD3+ T cell proliferation ([8]; 10-200 μg/mL, priming, recall, priming and recall, 11 days): no reducing effect; CD8+ T cell proliferation ([8]; all tested concentrations): no major effects; organ toxicities [9]: did not reveal any significant organ toxicities; thromboembolic events [9]: no evidence of thromboembolic events
